This passage reports MFIAF647/MFIFITC results from US20210317229A1.

The target in the assay is Recombinant EpCAM (R&D systems), conjugated with Alexa Fluor 647 (UniProt P16422). The assay can be described thus: flow cytometry, AF647-labelled recombinant EpCAM at 360nM on HEK293T cells expressing the myc-tagged CAR; ratio to anti-myc-FITC signal. In general terms: In flow cytometry, cells or beads pass a laser one at a time.
Sequence of UniProt P16422 (P16422 24-265 limits assumed): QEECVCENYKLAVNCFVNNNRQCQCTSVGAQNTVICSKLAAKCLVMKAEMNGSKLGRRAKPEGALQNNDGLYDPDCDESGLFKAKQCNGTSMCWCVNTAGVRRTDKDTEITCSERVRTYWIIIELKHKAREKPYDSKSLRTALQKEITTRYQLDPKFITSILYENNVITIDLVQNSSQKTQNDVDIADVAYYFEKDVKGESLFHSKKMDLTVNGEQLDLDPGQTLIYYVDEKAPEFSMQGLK
Turning to “CAR containing L4A scFv (UBS-54 variant, CDR-H3 DPFAHY) (from UniProt P01732 138-182; P10747 153-220; P20963 52-164)”, the MFIAF647/MFIFITC was 0.302.

As for “CAR containing D1A scFv (UBS-54 variant, CDR-H3 APFLHY) (from UniProt P01732 138-182; P10747 153-220; P20963 52-164)”, the MFIAF647/MFIFITC turned out to be 0.246.

Turning to “CAR containing Y6F scFv (UBS-54 variant, CDR-H3 DPFLHF) (from UniProt P01732 138-182; P10747 153-220; P20963 52-164)”, the MFIAF647/MFIFITC was determined as 0.239.

“CAR containing Y6A scFv (UBS-54 variant, CDR-H3 DPFLHA) (from UniProt P01732 138-182; P10747 153-220; P20963 52-164)”: the MFIAF647/MFIFITC is 0.018.

Take “CAR containing Y6L scFv (UBS-54 variant, CDR-H3 DPFLHL) (from UniProt P01732 138-182; P10747 153-220; P20963 52-164)”: the MFIAF647/MFIFITC was found to be 0.031.

Turning to “CAR containing Y6V scFv (UBS-54 variant, CDR-H3 DPFLHV) (from UniProt P01732 138-182; P10747 153-220; P20963 52-164)”, the MFIAF647/MFIFITC stood at 0.026.

Regarding “CAR containing F3A scFv (UBS-54 variant, alanine at CDR-H3 position 3) (from UniProt P01732 138-182; P10747 153-220; P20963 52-164)”, the MFIAF647/MFIFITC stood at 0.016.
